Earlier results on two substances are cited in article PMC3210452.

Data set [1] has as its target Q-type voltage-gated calcium channel (UniProt O00555).
Data set [2] addresses P-type voltage-gated calcium channel (UniProt P54282).
The target is the same in data set [3]. The source holds these as a separate data set.

Read-outs that look alike come from different tables or passages of the source.

Sequence of UniProt P54282 (P54282 whole entry): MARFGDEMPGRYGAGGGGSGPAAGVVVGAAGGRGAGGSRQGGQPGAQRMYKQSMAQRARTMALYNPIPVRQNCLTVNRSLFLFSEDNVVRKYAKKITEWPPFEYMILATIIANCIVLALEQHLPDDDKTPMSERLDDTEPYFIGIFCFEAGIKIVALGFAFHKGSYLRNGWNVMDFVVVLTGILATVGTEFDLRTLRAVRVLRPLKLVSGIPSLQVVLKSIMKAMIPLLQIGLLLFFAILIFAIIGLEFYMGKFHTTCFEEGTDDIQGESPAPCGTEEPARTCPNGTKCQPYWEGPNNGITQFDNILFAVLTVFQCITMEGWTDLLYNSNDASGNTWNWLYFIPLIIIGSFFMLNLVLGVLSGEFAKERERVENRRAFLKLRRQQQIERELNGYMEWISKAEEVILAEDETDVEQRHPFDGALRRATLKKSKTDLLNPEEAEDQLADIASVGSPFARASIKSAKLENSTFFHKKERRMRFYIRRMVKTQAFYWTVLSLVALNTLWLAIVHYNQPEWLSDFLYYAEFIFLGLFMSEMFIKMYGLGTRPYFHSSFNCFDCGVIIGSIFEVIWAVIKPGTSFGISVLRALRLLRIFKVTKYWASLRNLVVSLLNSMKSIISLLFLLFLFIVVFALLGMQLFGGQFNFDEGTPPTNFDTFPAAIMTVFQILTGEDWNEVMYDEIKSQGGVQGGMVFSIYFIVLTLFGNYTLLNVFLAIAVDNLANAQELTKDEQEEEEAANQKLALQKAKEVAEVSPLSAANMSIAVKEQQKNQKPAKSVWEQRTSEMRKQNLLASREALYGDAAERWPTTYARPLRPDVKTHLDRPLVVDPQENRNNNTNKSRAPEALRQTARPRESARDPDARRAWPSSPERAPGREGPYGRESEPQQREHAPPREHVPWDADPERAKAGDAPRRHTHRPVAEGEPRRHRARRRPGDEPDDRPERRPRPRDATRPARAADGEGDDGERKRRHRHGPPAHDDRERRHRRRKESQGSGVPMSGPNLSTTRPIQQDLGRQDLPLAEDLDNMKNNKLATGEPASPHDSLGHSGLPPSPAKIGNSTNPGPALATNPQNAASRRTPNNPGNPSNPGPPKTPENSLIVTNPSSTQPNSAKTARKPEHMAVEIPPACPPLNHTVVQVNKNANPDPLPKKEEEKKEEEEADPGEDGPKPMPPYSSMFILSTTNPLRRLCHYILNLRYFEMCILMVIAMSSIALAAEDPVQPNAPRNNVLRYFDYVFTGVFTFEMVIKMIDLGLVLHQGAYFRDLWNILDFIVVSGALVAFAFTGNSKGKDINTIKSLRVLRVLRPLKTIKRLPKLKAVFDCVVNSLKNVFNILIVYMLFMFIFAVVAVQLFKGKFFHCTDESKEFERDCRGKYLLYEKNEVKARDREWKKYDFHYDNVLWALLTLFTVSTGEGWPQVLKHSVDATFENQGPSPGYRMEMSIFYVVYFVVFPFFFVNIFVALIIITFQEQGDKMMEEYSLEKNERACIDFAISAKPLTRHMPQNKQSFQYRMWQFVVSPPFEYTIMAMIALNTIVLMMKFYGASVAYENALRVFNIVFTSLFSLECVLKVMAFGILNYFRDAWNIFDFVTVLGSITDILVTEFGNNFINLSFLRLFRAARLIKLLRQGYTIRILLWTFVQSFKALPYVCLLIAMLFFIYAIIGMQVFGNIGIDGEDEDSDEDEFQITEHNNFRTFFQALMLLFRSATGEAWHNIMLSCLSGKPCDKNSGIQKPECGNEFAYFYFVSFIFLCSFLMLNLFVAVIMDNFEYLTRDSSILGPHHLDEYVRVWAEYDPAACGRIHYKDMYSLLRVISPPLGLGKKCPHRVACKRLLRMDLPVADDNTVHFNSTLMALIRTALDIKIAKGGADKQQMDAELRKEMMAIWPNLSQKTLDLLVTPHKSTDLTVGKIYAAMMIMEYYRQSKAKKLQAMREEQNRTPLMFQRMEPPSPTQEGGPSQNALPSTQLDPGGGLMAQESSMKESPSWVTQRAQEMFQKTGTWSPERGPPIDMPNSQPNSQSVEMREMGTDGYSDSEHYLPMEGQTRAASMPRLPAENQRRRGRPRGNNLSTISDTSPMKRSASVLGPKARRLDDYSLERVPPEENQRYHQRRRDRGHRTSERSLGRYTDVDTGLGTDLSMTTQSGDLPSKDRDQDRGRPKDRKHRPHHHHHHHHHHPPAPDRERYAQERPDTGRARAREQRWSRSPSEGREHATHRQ
Sequence of UniProt O00555 (O00555 whole entry): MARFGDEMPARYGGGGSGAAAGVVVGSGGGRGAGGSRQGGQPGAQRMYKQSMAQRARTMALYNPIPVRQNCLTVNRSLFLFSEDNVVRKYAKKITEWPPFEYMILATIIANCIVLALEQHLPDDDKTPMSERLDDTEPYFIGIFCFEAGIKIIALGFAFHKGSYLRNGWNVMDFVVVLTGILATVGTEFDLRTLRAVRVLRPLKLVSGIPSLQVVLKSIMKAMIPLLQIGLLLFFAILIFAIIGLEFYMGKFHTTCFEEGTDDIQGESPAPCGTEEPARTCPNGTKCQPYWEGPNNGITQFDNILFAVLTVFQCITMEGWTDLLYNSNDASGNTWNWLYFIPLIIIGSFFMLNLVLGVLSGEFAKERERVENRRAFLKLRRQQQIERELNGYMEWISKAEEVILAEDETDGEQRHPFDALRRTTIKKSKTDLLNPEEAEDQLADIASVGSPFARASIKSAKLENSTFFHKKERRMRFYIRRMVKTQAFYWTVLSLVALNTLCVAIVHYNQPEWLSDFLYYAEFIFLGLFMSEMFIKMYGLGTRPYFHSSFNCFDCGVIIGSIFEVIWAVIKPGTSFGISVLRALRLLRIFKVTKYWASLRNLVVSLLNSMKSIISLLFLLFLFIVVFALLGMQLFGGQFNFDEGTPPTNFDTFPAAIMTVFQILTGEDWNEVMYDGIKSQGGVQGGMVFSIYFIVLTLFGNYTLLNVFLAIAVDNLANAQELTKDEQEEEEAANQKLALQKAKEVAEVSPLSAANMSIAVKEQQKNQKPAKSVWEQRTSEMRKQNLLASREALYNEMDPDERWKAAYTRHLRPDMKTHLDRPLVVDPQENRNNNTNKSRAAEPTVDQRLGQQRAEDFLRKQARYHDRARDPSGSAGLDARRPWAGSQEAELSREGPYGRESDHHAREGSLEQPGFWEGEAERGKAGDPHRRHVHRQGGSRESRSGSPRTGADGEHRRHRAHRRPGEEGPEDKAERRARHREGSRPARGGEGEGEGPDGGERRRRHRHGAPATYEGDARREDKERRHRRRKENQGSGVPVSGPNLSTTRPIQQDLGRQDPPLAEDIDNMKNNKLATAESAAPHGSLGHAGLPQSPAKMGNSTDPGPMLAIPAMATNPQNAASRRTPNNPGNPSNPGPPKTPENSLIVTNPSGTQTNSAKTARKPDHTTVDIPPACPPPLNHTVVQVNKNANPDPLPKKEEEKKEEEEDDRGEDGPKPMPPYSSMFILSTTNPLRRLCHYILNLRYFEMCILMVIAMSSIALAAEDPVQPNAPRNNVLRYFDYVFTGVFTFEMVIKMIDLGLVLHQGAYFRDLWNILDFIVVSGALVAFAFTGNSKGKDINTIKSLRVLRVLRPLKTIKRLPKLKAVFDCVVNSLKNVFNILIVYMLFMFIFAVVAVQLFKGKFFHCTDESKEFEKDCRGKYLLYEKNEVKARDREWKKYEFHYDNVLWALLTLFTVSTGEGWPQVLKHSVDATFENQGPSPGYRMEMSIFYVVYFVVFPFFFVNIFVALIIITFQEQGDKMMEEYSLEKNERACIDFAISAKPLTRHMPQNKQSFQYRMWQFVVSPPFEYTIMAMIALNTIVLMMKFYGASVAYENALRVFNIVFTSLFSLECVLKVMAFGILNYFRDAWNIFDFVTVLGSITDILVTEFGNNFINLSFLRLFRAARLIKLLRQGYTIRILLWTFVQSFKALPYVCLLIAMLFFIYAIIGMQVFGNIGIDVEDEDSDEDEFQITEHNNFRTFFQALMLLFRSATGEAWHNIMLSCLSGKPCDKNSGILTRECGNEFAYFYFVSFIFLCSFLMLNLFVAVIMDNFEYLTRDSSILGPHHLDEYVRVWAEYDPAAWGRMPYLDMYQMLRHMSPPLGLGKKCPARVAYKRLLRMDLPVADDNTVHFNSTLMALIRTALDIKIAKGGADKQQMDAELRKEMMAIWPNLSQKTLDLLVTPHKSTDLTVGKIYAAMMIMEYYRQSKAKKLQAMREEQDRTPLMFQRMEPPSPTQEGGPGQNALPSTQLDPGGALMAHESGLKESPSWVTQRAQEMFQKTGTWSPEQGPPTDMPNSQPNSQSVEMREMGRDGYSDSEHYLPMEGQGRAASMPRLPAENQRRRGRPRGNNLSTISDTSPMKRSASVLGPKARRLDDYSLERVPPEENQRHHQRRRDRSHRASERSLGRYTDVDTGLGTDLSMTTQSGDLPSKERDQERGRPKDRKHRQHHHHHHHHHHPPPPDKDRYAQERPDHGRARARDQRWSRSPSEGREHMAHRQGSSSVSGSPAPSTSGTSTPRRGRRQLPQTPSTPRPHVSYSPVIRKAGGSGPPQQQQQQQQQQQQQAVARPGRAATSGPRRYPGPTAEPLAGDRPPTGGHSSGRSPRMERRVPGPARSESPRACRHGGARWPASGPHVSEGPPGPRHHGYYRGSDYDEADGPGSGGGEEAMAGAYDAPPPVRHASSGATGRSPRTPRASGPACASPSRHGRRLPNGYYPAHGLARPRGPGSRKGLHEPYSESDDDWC

Turning to ω-agatoxin IVA (from UniProt P30288), the dissociation constant Kd (commonly a measure of binding affinity in units of concentration) was 100 nM in data set [1] and 2 nM in data set [2].
Consider ω-agatoxin IVB (from UniProt P37045), for which the Kd in data set [3] is 3 nM.
